Ends that are not written are not given here. * marks the point of attachment. FITC = O=C1OC2(c3ccc(O)cc3Oc3cc(O)ccc32)c2ccc(NC(=S)*)cc21; Ahx = NCCCCCC(=O)O
Molecular target: T1, EGFR on A431 and MDA MB 468 cells (human (endogenous in A431 and MDA MB …, UniProt P00533 25-1210))
T1 construct: also called Epidermal growth factor receptor; EGFR overexpressing cells; source: endogenous, overexpressed on A431 and MDA MB 468 cells
Experiment: flow cytometry on cells; A431, MDA MB 468 and HEK 293 cells; FITC labeled peptides 10 µM in HBSS, 37 °C, 15 minutes; washed, trypsinized; mean fluorescence intensity
Conditions: one partner purified

B1: FITC conjugated Pep11 (designed binder)
peptide: {FITC-Ahx}-WSGENGPGFYDYEA
notes: Pep11, FITC labelled; also called FITC-Pep11; source: synthetic peptide (solid phase, Fmoc chemistry, HPLC purified)
fold fluorescence against the other peptides: 1.5 fold
